According to US20080206243A1 (Genentech, published 2008):

Assays:
KDR [1] = target: T1, KDR (UniProt P35968 20-764, limits assumed); test: soluble radio-immuno receptor-binding assay (RIA)
T1 construct: The receptor construct used in the RIA is not described; also called KDR receptor; VEGFR-2

Flt-1 = target: T2, Flt-1 (UniProt P17948 27-758, limits assumed); test: soluble radio-immuno receptor-binding assay (RIA); target Flt-1
T2 construct: The receptor construct used in the RIA is not described; also called Flt-1 receptor; VEGFR-1

KDR [2] = target: T1, KDR; test: soluble radio-immuno receptor-binding assay (RIA); target KDR

T1 sequence (P35968 20-764 limits assumed): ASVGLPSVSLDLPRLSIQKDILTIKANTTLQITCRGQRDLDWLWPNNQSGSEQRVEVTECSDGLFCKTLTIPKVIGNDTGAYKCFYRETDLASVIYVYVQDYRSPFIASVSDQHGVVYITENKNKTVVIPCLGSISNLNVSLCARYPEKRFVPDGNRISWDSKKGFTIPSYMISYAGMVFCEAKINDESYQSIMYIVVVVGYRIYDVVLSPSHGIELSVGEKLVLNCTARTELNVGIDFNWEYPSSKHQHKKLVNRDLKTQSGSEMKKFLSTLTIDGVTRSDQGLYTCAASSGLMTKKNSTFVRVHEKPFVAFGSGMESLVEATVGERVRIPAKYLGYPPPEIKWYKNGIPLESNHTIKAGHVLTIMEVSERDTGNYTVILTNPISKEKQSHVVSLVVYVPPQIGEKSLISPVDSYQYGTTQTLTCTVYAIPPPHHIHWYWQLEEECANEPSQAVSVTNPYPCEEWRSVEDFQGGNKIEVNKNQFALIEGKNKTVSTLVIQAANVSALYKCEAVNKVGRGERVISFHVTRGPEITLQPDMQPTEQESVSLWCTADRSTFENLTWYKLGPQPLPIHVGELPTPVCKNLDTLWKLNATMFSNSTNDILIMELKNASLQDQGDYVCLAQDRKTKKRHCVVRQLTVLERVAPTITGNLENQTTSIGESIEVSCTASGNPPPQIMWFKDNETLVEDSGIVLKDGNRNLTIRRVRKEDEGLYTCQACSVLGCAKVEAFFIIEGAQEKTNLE
T2 sequence (P17948 27-758 limits assumed): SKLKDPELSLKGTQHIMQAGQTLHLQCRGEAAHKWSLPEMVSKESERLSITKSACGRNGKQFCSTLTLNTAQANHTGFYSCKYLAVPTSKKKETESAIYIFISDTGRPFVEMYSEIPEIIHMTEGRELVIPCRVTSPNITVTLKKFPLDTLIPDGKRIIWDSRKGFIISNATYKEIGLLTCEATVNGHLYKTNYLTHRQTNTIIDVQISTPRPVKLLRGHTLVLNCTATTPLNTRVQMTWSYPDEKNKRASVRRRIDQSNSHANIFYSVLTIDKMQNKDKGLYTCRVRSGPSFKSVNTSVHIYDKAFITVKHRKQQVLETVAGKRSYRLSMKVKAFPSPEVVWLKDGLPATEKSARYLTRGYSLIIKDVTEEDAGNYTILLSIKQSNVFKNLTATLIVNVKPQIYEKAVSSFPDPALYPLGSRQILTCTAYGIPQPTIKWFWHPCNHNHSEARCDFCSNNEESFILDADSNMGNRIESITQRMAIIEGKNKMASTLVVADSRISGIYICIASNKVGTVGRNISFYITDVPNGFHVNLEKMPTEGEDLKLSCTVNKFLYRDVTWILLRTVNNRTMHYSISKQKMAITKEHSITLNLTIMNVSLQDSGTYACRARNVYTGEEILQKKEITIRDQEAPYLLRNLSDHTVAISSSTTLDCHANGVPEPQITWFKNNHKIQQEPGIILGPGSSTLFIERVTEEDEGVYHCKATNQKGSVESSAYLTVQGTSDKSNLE

| fold reduction of KDR-binding affinity against native VEGF (KDR [1]) [fold] | Kd (Flt-1) [nM] | Kd (KDR [2]) [nM] | Molecule |
| --- | --- | --- | --- |
| > 470 | – | – | I43A/I46A/Q79A/I83A Flt-sel variant (from UniProt P15692 27-135) (ligand) |
| – | 0.4 | 0.5 | native VEGF(8-109) (ligand, human, UniProt P15692 214-315, looked up, range 8-109; Residues 8-109 are counted on the native (mature) 165-amino acid VEGF, not on the precursor with its signal peptide; the listing holds only primers; also called native protein) GQNHHEVVKFMDVYQRSYCHPIETLVDIFQEYPDEIEYIFKPSCVPLMRCGGCCNDEGLECVPTEESNITMQIMRIKPHQGQHIGEMSFLQHNKCECRPKKD |
